Data published in paper PMC9171807 (Proceedings of the National Academy of Sciences of the …, 2022).
Where a chain is given by its changes, count along the chain named. Values belong to the binder of their own block, whether it stands above or below them.

Tests used:
[1] = molecular target: T1, 17-residue MSLN C terminus peptide (human); experiment: crystal structure
T1 chain: IPNGYLVLDLSMQEALS

MSLN 296 to 591 = MSLN 296 to 591 (Homo sapiens (Human)., UniProt Q13421-3); experiment: BLI
MSLN–585-his = MSLN–585-his (Homo sapiens (Human)., UniProt Q13421-3); experiment: ELISA

binding result [1]: binds | binding result (MSLN 296 to 591): no binding
B1: Fab fragment of mAb 15B6 (Fab, V domains shown)
VH: EVQLQQSGPVLVKPGASVKISCKASGYSFTGYYMHWVRQSNGKSLEWIGRINPYTGVPSYKHNFKDKASLTVDKSSSTAYMELHSLTSEDSAVYYCARELGGYWGQGTTLTVSS
VL: QAVVTQESALTTSPGETVTLTCRSSTGAVTTGNYPNWVQEKPDHLFTGLIAGTNNRAPGVPARFSGSLIGDKAALTITGAQTEDEAIYFCALWFSSHWVFGGGTKLTVL

binding result (MSLN–585-his): no binding
B2: monoclonal antibody (mAb) 15B6 (antibody, V domains shown)
VH: B1 VH with N41L, G42V, S44R
VL: B1 VL
